Literature values in publication PMC139967 (BMC Biochemistry, 2002).

Experiments:
[1] = system: calmodulin
[2] = not given; remark: listed apart in the source

B1: Myo1c: Myosin-1c, previously called myosin-Iβ, myr 2, or MI-110K; literature preparations (protein, UniProt O00159 1-1063, looked up)
Unconventional myosin-Ic: MALQVELVPTGEIIRVVHPHRPCKLALGSDGVRVTMESALTARDRVGVQDFVLLENFTSEAAFIENLRRRFRENLIYTYIGPVLVSVNPYRDLQIYSRQHMERYRGVSFYEVPPHLFAVADTVYRALRTERRDQAVMISGESGAGKTEATKRLLQFYAETCPAPERGGAVRDRLLQSNPVLEAFGNAKTLRNDNSSRFGKYMDVQFDFKGAPVGGHILSYLLEKSRVVHQNHGERNFHIFYQLLEGGEEETLRRLGLERNPQSYLYLVKGQCAKVSSINDKSDWKVVRKALTVIDFTEDEVEDLLSIVASVLHLGNIHFAANEESNAQVTTENQLKYLTRLLSVEGSTLREALTHRKIIAKGEELLSPLNLEQAAYARDALAKAVYSRTFTWLVGKINRSLASKDVESPSWRSTTVLGLLDIYGFEVFQHNSFEQFCINYCNEKLQQLFIELTLKSEQEEYEAEGIAWEPVQYFNNKIICDLVEEKFKGIISILDEECLRPGEATDLTFLEKLEDTVKHHPHFLTHKLADQRTRKSLGRGEFRLLHYAGEVTYSVTGFLDKNNDLLFRNLKETMCSSKNPIMSQCFDRSELSDKKRPETVATQFKMSLLQLVEILQSKEPAYVRCIKPNDAKQPGRFDEVLIRHQVKYLGLLENLRVRRAGFAYRRKYEAFLQRYKSLCPETWPTWAGRPQDGVAVLVRHLGYKPEEYKMGRTKIFIRFPKTLFATEDALEVRRQSLATKIQAAWRGFHWRQKFLRVKRSAICIQSWWRGTLGRRKAAKRKWAAQTIRRLIRGFVLRHAPRCPENAFFLDHVRTSFLLNLRRQLPQNVLDTSWPTPPPALREASELLRELCIKNMVWKYCRSISPEWKQQLQQKAVASEIFKGKKDNYPQSVPRLFISTRLGTDEISPRVLQALGSEPIQYAVPVVKYDRKGYKPRSRQLLLTPNAVVIVEDAKVKQRIDYANLTGISVSSLSDSLFVLHVQRADNKQKGDVVLQSDHVIETLTKTALSANRVNSININQGSITFAGGPGRDGTIDFTPGSELLITKAKNGHLAVVAPRLNSR
Question: What does the source list for B1?
Answer: effect of Ca^2+ on in vitro motility: completely halts; calmodulins per Myo1c after calmodulin supplementation ([1]; calmodulin supplementation): ≤ 4; calmodulins per Myo1c heavy chain ([1]; purified Myo1c): 2–3; effect of Ca^2+ on ATPase activity [2]: increases
